Source: publication PMC4383598, “Role of Cysteine Residues in the Structure, Stability, and Alkane Producing Activity of Cyanobacterial Aldehyde Deformylating Oxygenase” (PLoS ONE, 2015)
Residue numbers refer to the chain shown, from its start. Numbers in names are those of the source.

Target: the molecule itself
Assay: SEC; Superdex 200pg (124 mL), 500 uL of protein at 2.5 mg/mL, 0.5 mL/min, 10 mM sodium phosphate pH 7.2, 150 mM NaCl; fraction of dimer against monomer

B1: Aldehyde deformylating oxygenase from Nostoc punctiforme PCC 73102, C71S mutant (enzyme, UniProt B2J1M1 1-232, looked up)
chain: MQQLTDQSKELDFKSETYKDAYSRINAIVIEGEQEAHENYITLAQLLPESHDELIRLSKMESRHKKGFEASGRNLAVTPDLQFAKEFFSGLHQNFQTAAAEGKVVTCLLIQSLIIECFAIAAYNIYIPVADDFARKITEGVVKEEYSHLNFGEVWLKEHFAESKAELELANRQNLPIVWKMLNQVEGDAHTMAMEKDALVEDFMIQYGEALSNIGFSTRDIMRLSAYGLIGA
notes: Aldehyde deformylating oxygenase of Nostoc punctiforme PCC 73102; codon-optimised synthetic gene; Same construct as m1 with the mutation; source: E. coli BL21(DE3)pLysS (pET-15b-AD variant), purified (Ni-agarose, dialysis)
stoichiometry N: 2

B2: Aldehyde deformylating oxygenase from Nostoc punctiforme PCC 73102, C71A mutant (enzyme, UniProt B2J1M1 1-232, looked up)
chain: B1 chain with S71A
notes: as for B1
stoichiometry N: 2
